Where two headings read alike, the source gives them in different places.
T1: recombinant human Fc gamma RIIb/c (CD32b/c) (human, UniProt P31994 46-217)
T1 sequence (looked up): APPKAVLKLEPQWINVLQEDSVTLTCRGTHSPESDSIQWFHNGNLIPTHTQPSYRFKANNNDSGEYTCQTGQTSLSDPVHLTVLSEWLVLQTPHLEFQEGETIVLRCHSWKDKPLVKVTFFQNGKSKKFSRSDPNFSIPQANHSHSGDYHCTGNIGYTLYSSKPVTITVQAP

T2: recombinant human Fc gamma RIIa (CD32a) 131R (human, UniProt P12318 36-218)
T2 sequence (looked up): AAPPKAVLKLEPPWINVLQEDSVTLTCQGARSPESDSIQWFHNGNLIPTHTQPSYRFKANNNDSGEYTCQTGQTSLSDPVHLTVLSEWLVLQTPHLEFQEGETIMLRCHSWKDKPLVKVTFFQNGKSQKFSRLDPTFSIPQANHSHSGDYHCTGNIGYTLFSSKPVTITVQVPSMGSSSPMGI

T3: recombinant human Fc gamma RIIa (CD32a) 131H (human, UniProt P12318 36-218)
T3 sequence (looked up): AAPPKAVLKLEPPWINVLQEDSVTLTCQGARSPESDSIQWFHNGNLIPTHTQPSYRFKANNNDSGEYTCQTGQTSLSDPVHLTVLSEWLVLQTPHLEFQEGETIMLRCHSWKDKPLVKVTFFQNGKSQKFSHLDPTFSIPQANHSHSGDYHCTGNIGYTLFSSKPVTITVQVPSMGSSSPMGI

T4: CD20 Lipoparticles (Homo sapiens (Human), UniProt P11836 1-297)
T4 sequence: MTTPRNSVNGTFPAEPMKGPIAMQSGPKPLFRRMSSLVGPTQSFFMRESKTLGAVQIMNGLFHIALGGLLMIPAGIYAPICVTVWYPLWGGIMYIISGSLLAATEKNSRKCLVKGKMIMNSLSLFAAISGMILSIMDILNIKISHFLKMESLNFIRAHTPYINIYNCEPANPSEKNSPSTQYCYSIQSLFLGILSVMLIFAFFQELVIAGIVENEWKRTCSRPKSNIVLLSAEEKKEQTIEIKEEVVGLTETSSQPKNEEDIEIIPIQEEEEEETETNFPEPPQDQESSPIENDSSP


Legend:
[1] = target: T1, recombinant human Fc gamma RIIb/c …
[2] = target: T5, recombinant human Fc gamma RI (CD64) (human, UniProt P12314 16-288)
T5 sequence (P12314 16-288 limits assumed): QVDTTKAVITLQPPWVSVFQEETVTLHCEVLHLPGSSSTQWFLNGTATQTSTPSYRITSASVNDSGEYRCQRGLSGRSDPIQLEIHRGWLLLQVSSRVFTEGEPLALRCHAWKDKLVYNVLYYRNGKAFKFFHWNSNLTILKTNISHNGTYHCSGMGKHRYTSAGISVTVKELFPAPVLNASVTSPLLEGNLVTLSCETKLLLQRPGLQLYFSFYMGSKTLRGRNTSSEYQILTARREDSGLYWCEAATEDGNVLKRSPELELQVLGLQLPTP

[3] = target: T2, recombinant human Fc gamma RIIa (CD32a) …
[4] = target: T6, recombinant human Fc gamma RIIIb (CD16b) (human, UniProt O75015 17-200)
T6 sequence (O75015 17-200 limits assumed): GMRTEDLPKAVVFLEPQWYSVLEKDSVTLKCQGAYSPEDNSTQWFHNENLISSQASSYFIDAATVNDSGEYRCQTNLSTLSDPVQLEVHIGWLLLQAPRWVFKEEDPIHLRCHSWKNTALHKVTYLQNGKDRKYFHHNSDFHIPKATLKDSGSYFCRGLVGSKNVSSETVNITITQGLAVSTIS

[5] = target: T7, recombinant human Fc gamma RIIIa (CD16a) 158V (human, UniProt P08637 17-208)
T7 sequence (P08637 17-208 F176V limits assumed): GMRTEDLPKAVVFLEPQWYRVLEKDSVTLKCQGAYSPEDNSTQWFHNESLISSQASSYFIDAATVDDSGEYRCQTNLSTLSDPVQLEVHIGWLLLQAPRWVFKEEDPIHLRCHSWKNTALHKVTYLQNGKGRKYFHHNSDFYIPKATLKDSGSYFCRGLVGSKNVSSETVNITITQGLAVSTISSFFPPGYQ

[6] = target: T8, recombinant human Fc gamma RIIIa (CD16a) 158F (human, UniProt P08637 17-208)
T8 sequence (P08637 17-208 limits assumed): as the sequence (P08637 17-208 F176V limits assumed) above, with V160F counted along it

[7] = target: T1, recombinant human Fc gamma RIIb/c …; remark: listed apart in the source
[8] = target: T5, recombinant human Fc gamma RI (CD64); remark: listed apart in the source
[9] = target: T6, recombinant human Fc gamma RIIIb (CD16b); remark: listed apart in the source
[10] = target: T7, recombinant human Fc gamma RIIIa …; remark: listed apart in the source
[11] = target: T8, recombinant human Fc gamma RIIIa …; remark: listed apart in the source
[12] = target: T2, recombinant human Fc gamma RIIa (CD32a) …; remark: listed apart in the source
[13] = target: T3, recombinant human Fc gamma RIIa (CD32a) …
CD20 Lipoparticles = target: T4, CD20 Lipoparticles

Binder | Kd [1] [nM] | Kd [2] [nM] | Kd [3] [nM] | Kd [4] [nM] | Kd [5] [nM] | Kd [6] [nM] | Kd [7] [nM] | Kd [8] [nM] | Kd [9] [nM] | Kd [10] [nM] | Kd [11] [nM] | Kd [12] [nM] | Kd [13] [nM] | Kd (CD20 Lipoparticles) [nM]
Rituximab-S239D/I332E (antibody, human IgG1, kappa) heavy: not shown light: QIVLSQSPAILSASPGEKVTMTCRASSSVSYIHWFQQKPGSSPKPWIYATSNLASGVPVRFSGSGSGTSYSLTISRVEAEDAATYYCQQWTSNPPTFGGGTKLEIKRTVAAPSVFIFPPSDEQLKSGTASVVCLLNNFYPREAKVQWKVDNALQSGNSQESVTEQDSKDSTYSLSSTLTLSKADYEKHKVYACEVTHQGLSSPVTKSFNRGEC | 138 | 0.0266 | 76.8 | 66.8 | 4.33 | 17.6 | – | – | – | – | – | – | – | –
Rc66SIDE-P16-Rc66SIDE (antibody, human IgG1, kappa) light: QIVLSQSPAILSASPGEKVTMTCRASSSVSYIHWFQQKPGSSPKPWIYATSNLASGVPVRFSGSGSGTSYSLTISRVEAEDAATYYCQQWTSNPPTFGGGTKLEIKRTVAAPSVFIFPPSDEQLKSGTASVVCLLNNFYPREAKVQWKVDNALQSGNSQESVTEQDSKDSTYSLSSTLTLSKADYEKHKVYACEVTHQGLSSPVTKSFNRGEC heavy: QVQLQQPGAELVKPGASVKMSCKASGYTFTSYNMHWVKQTPGRGLEWIGAIYPGNGDTSYNQKFKGKATLTADKSSSTAYMQLSSLTSEDSAVYYCARSTYYGGDWYFNVWGAGTTVTVSAASTKGPSVFPLAPSSKSTSGGTAALGCLVKDYFPEPVTVSWNSGALTSGVHTFPAVLQSSGLYSLSSVVTVPSSSLGTQTYICNVNHKPSNTKVDKKAEPKSCDKTHTCPPCPAPELLGGPDVFLFPPKPKDTLMISRTPEVTCVVVDVSHEDPEVKFNWYVDGVEVHNAKTKPREEQYNSTYRVVSVLTVLHQDWLNGKEYKCKVSNKALPAPEEKTISKAKGQPREPQVYVLPPSRDELTKNQVSLLCLVKGFYPSDIAVEWESNGQPENNYLTWPPVLDSDGSFFLYSKLTVDKSRWQQGNVFSCSVMHEALHNHYTQKSLSLSPGK CPPCPAPELLGGPDVFLFPPKPKDTLMISRTPEVTCVVVDVSHEDPEVKFNWYVDGVEVHNAKTKPREEQYNSTYRVVSVLTVLHQDWLNGKEYKCKVSNKALPAPEEKTISKAKGQPREPQVYVYPPSRDELTKNQVSLTCLVKGFYPSDIAVEWESNGQPENNYKTTPPVLDSDGSFALVSKLTVDKSRWQQGNVFSCSVMHEALHNHYTQKSLSLSPGK | – | – | – | – | – | – | 0.556 | < 0.001 | < 0.001 | 0.257 | 2.71 | 1.83 | 0.808 | < 0.001
Rc66SIDE (antibody, human IgG1, kappa) light: QIVLSQSPAILSASPGEKVTMTCRASSSVSYIHWFQQKPGSSPKPWIYATSNLASGVPVRFSGSGSGTSYSLTISRVEAEDAATYYCQQWTSNPPTFGGGTKLEIKRTVAAPSVFIFPPSDEQLKSGTASVVCLLNNFYPREAKVQWKVDNALQSGNSQESVTEQDSKDSTYSLSSTLTLSKADYEKHKVYACEVTHQGLSSPVTKSFNRGEC heavy: QVQLQQPGAELVKPGASVKMSCKASGYTFTSYNMHWVKQTPGRGLEWIGAIYPGNGDTSYNQKFKGKATLTADKSSSTAYMQLSSLTSEDSAVYYCARSTYYGGDWYFNVWGAGTTVTVSAASTKGPSVFPLAPSSKSTSGGTAALGCLVKDYFPEPVTVSWNSGALTSGVHTFPAVLQSSGLYSLSSVVTVPSSSLGTQTYICNVNHKPSNTKVDKKAEPKSCDKTHTCPPCPAPELLGGPDVFLFPPKPKDTLMISRTPEVTCVVVDVSHEDPEVKFNWYVDGVEVHNAKTKPREEQYNSTYRVVSVLTVLHQDWLNGKEYKCKVSNKALPAPEEKTISKAKGQPREPQVYVLPPSRDELTKNQVSLLCLVKGFYPSDIAVEWESNGQPENNYLTWPPVLDSDGSFFLYSKLTVDKSRWQQGNVFSCSVMHEALHNHYTQKSLSLSPGK CPPCPAPELLGGPDVFLFPPKPKDTLMISRTPEVTCVVVDVSHEDPEVKFNWYVDGVEVHNAKTKPREEQYNSTYRVVSVLTVLHQDWLNGKEYKCKVSNKALPAPEEKTISKAKGQPREPQVYVYPPSRDELTKNQVSLTCLVKGFYPSDIAVEWESNGQPENNYKTTPPVLDSDGSFALVSKLTVDKSRWQQGNVFSCSVMHEALHNHYTQKSLSLSPGK | – | – | – | – | – | – | 253 | – | 163 | 46.2 | 76.8 | 202 | 255 | 21.4
Rc66SIDE-P4-Rc66SIDE (antibody, human IgG1, kappa) light: QIVLSQSPAILSASPGEKVTMTCRASSSVSYIHWFQQKPGSSPKPWIYATSNLASGVPVRFSGSGSGTSYSLTISRVEAEDAATYYCQQWTSNPPTFGGGTKLEIKRTVAAPSVFIFPPSDEQLKSGTASVVCLLNNFYPREAKVQWKVDNALQSGNSQESVTEQDSKDSTYSLSSTLTLSKADYEKHKVYACEVTHQGLSSPVTKSFNRGEC heavy: QVQLQQPGAELVKPGASVKMSCKASGYTFTSYNMHWVKQTPGRGLEWIGAIYPGNGDTSYNQKFKGKATLTADKSSSTAYMQLSSLTSEDSAVYYCARSTYYGGDWYFNVWGAGTTVTVSAASTKGPSVFPLAPSSKSTSGGTAALGCLVKDYFPEPVTVSWNSGALTSGVHTFPAVLQSSGLYSLSSVVTVPSSSLGTQTYICNVNHKPSNTKVDKKAEPKSCDKTHTCPPCPAPELLGGPDVFLFPPKPKDTLMISRTPEVTCVVVDVSHEDPEVKFNWYVDGVEVHNAKTKPREEQYNSTYRVVSVLTVLHQDWLNGKEYKCKVSNKALPAPEEKTISKAKGQPREPQVYVLPPSRDELTKNQVSLLCLVKGFYPSDIAVEWESNGQPENNYLTWPPVLDSDGSFFLYSKLTVDKSRWQQGNVFSCSVMHEALHNHYTQKSLSLSPGK CPPCPAPELLGGPDVFLFPPKPKDTLMISRTPEVTCVVVDVSHEDPEVKFNWYVDGVEVHNAKTKPREEQYNSTYRVVSVLTVLHQDWLNGKEYKCKVSNKALPAPEEKTISKAKGQPREPQVYVYPPSRDELTKNQVSLTCLVKGFYPSDIAVEWESNGQPENNYKTTPPVLDSDGSFALVSKLTVDKSRWQQGNVFSCSVMHEALHNHYTQKSLSLSPGK | – | – | – | – | – | – | 3.17 | < 0.001 | 1.05 | 1.14 | 3.87 | 4.93 | 2.54 | < 0.001
HB2174 (bispecific antibody, human IgG1, kappa) heavy 1: QVQLVQSGGGVVQPGRSLRLSCAASGVSLPDYGVSWVRKAPGKGLEWVAVIWGSETTYYNSALKSRFTISRDNSKNTLYLQMSSLRAEDTAVYYCAKHYYYGGSFAMDYWGQGTLVTVSSASTKGPSVFPLAPSSKSTSGGTAALGCLVKDYFPEPVTVSWNSGALTSGVHTFPAVLQSSGLYSLESVVTVPSSSLGTQTYICNVNHKPSNTKVDKKVEPKSCTDWSPYADQSIKVRISLKSALGDKAYEWNDNEMYLFRSSVAYAMRQYFLKVKNQMILFGEEDVRVANLKPRISFNFFVTAPKNVSDIIPRTEVEKAIRMSRSRINDAFRLNDNSLEFLGIQPTLGPPNQPPVSTSTSPTRSMAPGAVHLPQPVSTRDKTHTCPPCPAPELLGGPSVFLFPPKPKDTLMISRTPEVTCVVVDVSHEDPEVKFNWYVDGVEVHNAKTKPREEQYNSTYRVVSVLTVLHQDWLNGKEYKCKVSNKALPAPIEKTISKAKGQPREPQVCTLPPSRDELTKNQVSLSCAVKGFYPSDIAVEWESNGQPENNYKTTPPVLDSDGSFFLVSKLTVDKSRWQQGNVFSCSVMHEALHNRFTQKSLSLSPG heavy 2: not shown light 1: DIQMTQSPSSLSASVGDRVTITCRASQDISKYLNWYQEKPGKAIKLLIYHTSRLHSGVPSRFSGSGSGTDFTLTISSLQPEDFATYYCQQGATLPYTFGPGTKLEIKRTVAAPSVFIFPPSDEQLKSGTASVKCLLNNFYPREAKVQWKVDNALQSGNSQESVTEQDSKDSTYSLSSTLTLSKADYEKHKVYACEVTHQGLSSPVTKSFNRGEC light 2: QVQLQQPGAELVKPGASVKMSCKASGYTFTSYNMHWVKETPGRGLEWIGAIYPGNGDTSYNQKFKGKATLTADKSSSTAYMQLSSLTSEDSAVYYCARSTYYGGDWYFNVWGAGTLVTVSSASVAAPSVFIFPPSDEQLKSGTASVECLLNNFYPREAKVQWKVDNALQSGNSQESVTEQDSKDSTYSLSSTLTLSKADYEKHKVYACEVTHQGLSSPVTKSFNRGEC | 4480 | 0.118 | 901 | 8910 | 497 | 2310 | – | – | – | – | – | – | – | –
